Assay [1] concerns the target native tubulin purified from porcine brain, polymerised to microtubules (MTs) (porcine). As to the kind of experiment: co-sedimentation.
Assay [2] shares this target. Nature of the assay: co-sedimentation. This is another data set of the same source.
Assay [3] has the same target. As to the kind of experiment: co-sedimentation. This is another data set of the same source.
Assay [4] has the same target. Nature of the assay: total internal reflection fluorescence microscopy.

Residue numbers refer to the chain shown, from its start.

This is an account of results in article doi:10.1101/194993.

B1: Cdt1^92-546 (human Cdt1 devoid of the N-terminal 92 aa, N-terminal GFP fusion) (domain or fragment)
chain: PSPGQKIKKSTPAAGQPPHLTSAQDQDTISELASCLQRARELGARVRALKASAQDAGESCTPEAEGRPEEPCGEKAPAYQRFHALAQPGLPGLVLPYKYQVLAEMFRSMDTIVGMLHNRSETPTFAKVQRGVQDMMRRRFEECNVGQIKTVYPASYRFRQERSVPTFKDGTRRSDYQLTIEPLLEQEADGAAPQLTASRLLQRRQIFSQKLVEHVKEHHKAFLASLSPAMVVPEDQLTRWHPRFNVDEVPDIEPAALPQPPATEKLTTAQEVLARARNLISPRMEKALSQLALRSAAPSSPGSPRPALPATPPATPPAASPSALKGVSQDLLERIRAKEAQKQLAQMTRCPEQEQRLQRLERLPELARVLRSVFVSERKPALSMEVACARMVGSCCTIMSPGEMEKHLLLLSELLPDWLSLHRIRTDTYVKLDKAADLAHITARLAHQTRAEEGL
Take B1: the Kd in assay [1] stood at 1.85 µM; in assay [2] it was 2.03 µM; in assay [3] it was 2.2 µM; in assay [4] it was 0.46 µM. Besides, the binding left in the presence of 250 mM NaCl in assay [3] turned out to be 50%. This molecule displayed a dwell time in assay [4] of 2.37 s. This molecule yielded a kon in assay [4] of 1070 M⁻¹ s⁻¹.

B2: Cdt1^92-546 8D (Aurora B phosphomimetic mutant) (domain or fragment)
chain: B1 chain with S10D, T11D, S52D, S174D, T179D, T196D, T238D, T267D
The molecule B2 yielded an equilibrium dissociation constant (Kd) in assay [2] of 5.5 µM.

B3: Cdt1^410-546 (N-terminal GFP fusion) (domain or fragment)
chain: ASPSALKGVSQDLLERIRAKEAQKQLAQMTRCPEQEQRLQRLERLPELARVLRSVFVSERKPALSMEVACARMVGSCCTIMSPGEMEKHLLLLSELLPDWLSLHRIRTDTYVKLDKAADLAHITARLAHQTRAEEGL
Turning to B3, the reduction of MT binding against Cdt1^92-546 in assay [3] was 50%.

B4: full-length (FL) Cdt1^1-546, untagged (natural protein)
chain: MEQRRVTDFFARRRPGPPRIAPPKLACRTPSPARPALRAPASATSGSRKRARPPAAPGRDQARPPARRRLRLSVDEVSSPSTPEAPDIPACPSPGQKIKKSTPAAGQPPHLTSAQDQDTISELASCLQRARELGARVRALKASAQDAGESCTPEAEGRPEEPCGEKAPAYQRFHALAQPGLPGLVLPYKYQVLAEMFRSMDTIVGMLHNRSETPTFAKVQRGVQDMMRRRFEECNVGQIKTVYPASYRFRQERSVPTFKDGTRRSDYQLTIEPLLEQEADGAAPQLTASRLLQRRQIFSQKLVEHVKEHHKAFLASLSPAMVVPEDQLTRWHPRFNVDEVPDIEPAALPQPPATEKLTTAQEVLARARNLISPRMEKALSQLALRSAAPSSPGSPRPALPATPPATPPAASPSALKGVSQDLLERIRAKEAQKQLAQMTRCPEQEQRLQRLERLPELARVLRSVFVSERKPALSMEVACARMVGSCCTIMSPGEMEKHLLLLSELLPDWLSLHRIRTDTYVKLDKAADLAHITARLAHQTRAEEGL
B4 returned a Kd in assay [3] of 2.29 µM.

As a reminder, the Kd is the equilibrium constant for the complex coming apart. A higher Kd goes with a looser complex. Broadly, the kon is the second-order rate constant of association. Lower therefore signals slow association.
